The source of these data is US20250376535A1 (BEIJING STARMAB BIOMED TECHNOLOGY, published 2025).

First the molecules themselves.
B1: pgXX88-10 (VHH, not shown: small tags and cut ends)
VHH: EVQLVESGGGLVQAGESLRLSCSASGSIRLNAVGWFRQAPVNQRLMVATITHNNSTNYADSVQGRFTIARDDAKNTVTLQMNSLKPEDTAVYMCKVYQLPVPISSHDDYWGQGTQVTVSS
B2: pgEG-SX6 (VHH, not shown: small tags and cut ends)
VHH: QVQLVESGGGTVQAGGSLRLSCVASGMREDIFDMGWYRQAPGLQRELVATITSGGSTDYADSVKGRFTISRDNTENTLNLQMNMLKPEDTAVYYCNALYFPPSGGRSSEFWGQGTLVTVSS
B3: pgEG-SX22 (VHH, not shown: small tags and cut ends)
VHH: QVQLVESGGGLVQAGGSLRVSCAVSGGALSAYAMAWFRQAPGKEREFVAGLNWGGDETYYADSAKGRFTISKDNAKNTVSLQMNSLEPEDTAVYYCGGRPGPLLSRATGYKYWGQGTQVTVSS
B4: pgEG-SX3 (VHH, not shown: small tags and cut ends)
VHH: QVQLVESGGGLVQAGGSLRLSCVVYGSIFASTTMGWYRQAPGKQRELVATVYQSGTSVYADSVKGRFTASRDNAKKTVYLQMNSLKPEDTAVYYCHPRATDYWGRGTQVTVSS
B5: pgEG-SX40 (VHH, not shown: small tags and cut ends)
VHH: QVQLVESGGGLVQAGGSLRLSCTGSGIRFSFYTLGWYRQAPGKQRELVAEIYSSDNAKYEDSVKGRFAISRDNAKNSVSLQMNSLKPEDTAVYYCNVRATDYWGPGTQVTVSS
B6: pgEG-SX57 (VHH, not shown: small tags and cut ends)
VHH: QVQLVESGGGLVQAGGSLRLSCAGARSIFSIKPMTWYRQAPGKERELVAWFTSGDSPNYADSVKGRFTISRDSAKNTVYLQMNNLKPEDTAVYYCNAVPPLGRWGQGTLVTVSS

One test has as its target T1, recombinant human OX40-Fc (human, UniProt P43489 29-214).
T1 construct: also called rh-OX40-Fc; human OX40 hFC (R & D systems)
T1 sequence: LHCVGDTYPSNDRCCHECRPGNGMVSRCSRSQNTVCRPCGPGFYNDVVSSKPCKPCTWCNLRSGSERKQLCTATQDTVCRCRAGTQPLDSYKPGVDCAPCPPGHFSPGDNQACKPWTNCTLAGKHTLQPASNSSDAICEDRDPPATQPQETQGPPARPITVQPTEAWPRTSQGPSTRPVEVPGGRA
Kind of test: blocking ELISA, OX40-hFc premixed with VHH on coated OX40L-mFc; full blocker; full blocker. (In general: ELISA stands for enzyme-linked immunosorbent assay.)
Procedure: Blocking Assay. The 96-well plate was coated with 100 μL of 1 μg/mL OX40L-mFc prepared in antigen coating buffer overnight at 4° C., then blocked with 2% BSA for 1 hour at 25° C. […] The plate was washed with PBST four times, then incubated with Mouse anti-human IgG Fc-HRP at 25° C. for 1 hour. After four times of wash with PBST, the plate was developed with 100 μL of TMB per well for 10 to 20 min in the dark and then stopped by adding 50 μL of Stop Solution.
For B1, the EC50 stood at 0.12 nM.

A further test concerns the target T1, recombinant human OX40-Fc. Description: ELISA, OX40-Fc coated, VHH at 40 nM.
Procedure: (§1) After four times washing with PBST, the plate was incubated with detecting antibody anti-his-HRP (1:4000 dilution) 100 μl per well for one hour with shaking at 60 rpm. The plate was developed with 100 μL of TMB per well in the dark and then stopped by 50 μL of stop solution per well. […] Data was analyzed using GraphPad Prisma 9.1.
B1: the OD450 was 1.54.

The target in the next test is T2, EGFR Fc (human, UniProt P00533 25-645).
T2 construct: also called EGFR-hFc; recombinant human EGFR-Fc
Kind of test: ELISA, EGFR Fc coated, VHH at 50 nM.
Procedure: (§2) After four rounds of washing with PBST, the plate was incubated with detecting antibody anti-his-HRP (1:4000 dilution) 100 μl per well for one hour with shaking at 60 rpm. The plate was developed with 100 μL of TMB per well in the dark and then stopped by 50 μL of stop solution per well. […] Data was analyzed using GraphPad Prisma 9.1.
Consider B2, for which the OD450 was 1.15.
As for B3, the OD450 worked out at 1.78.
Consider B4, for which the OD450 is 1.21.
The molecule B5 had an OD450 of 0.786.
Same read-out and setting: next, B6: 2.46.

For the next test, the target named is T2, EGFR Fc. Description: ELISA, EGFR Fc coated.
Procedure: as §2
Turning to B2, the EC50 was determined as 0.12 nM.
Molecule B3 displayed an EC50 of 0.0072 nM.
With B4, the EC50 was determined as 0.382 nM.
B5 returned an EC50 of 0.769 nM.
B6 displayed an EC50 of 0.022 nM.

A further test deals with T2, EGFR Fc. Description: ELISA, EGFR Fc coated, VHH at 500 nM.
Procedure: as §2
Turning to B2, the OD450 amounted to 1.37.
On to B3, for which the OD450 worked out at 2.16.
On to B4, for which the OD450 was found to be 1.47.
In the case of B5, the OD450 is 0.963.
Regarding B6, the OD450 was 2.61.

In another test the target is T1, recombinant human OX40-Fc. Description: BLI, VHH-His on anti-His tips, OX40 hFc in solution. (In general: In BLI a coated tip is dipped into the sample, and binding shifts an interference pattern.)
Procedure: Bio-Layer Interferometry (BLI) kinetic binding analysis. […] Affinity measurements were performed with Gator equipped with Anti-Penta-His capture (HIS1K) biosensor tips. The assay was performed at 30° C. in 1×PBS buffer (Gibco®, PBS pH7.2). Samples were agitated at 1000 rpm. Prior to analysis, sensors were humidified for 15 min. Purified anti-OX40 VHH was tested for its binding capacity with HIS1K sensor tips. Tips were loaded using 20 μg/ml of anti-OX40 VHH. Loading proceeded for 300 s resulting in capture levels of between 1.8 and 2 nm. […] Association was initiated and monitored for 200 sec, after which tips were transferred to 1×PBS buffer without Factor protein (Gibco, PBS pH 7.2), in order to monitor dissociation. Sensor data was collected throughout the experiments, processed, and analyzed using the Gator data analysis software.
As for B1, the Kd was less than 0.001 nM, the koff was determined as 1e-06 s⁻¹ and the kon was 662000 M⁻¹ s⁻¹.

The next test addresses T1, recombinant human OX40-Fc. Description: ELISA, OX40-Fc coated, VHH at 1000 nM.
Procedure: as §1
In the case of B1, the OD450 worked out at 1.62.

Another test addresses T2, EGFR Fc. Kind of test: ELISA, EGFR Fc coated, VHH at 10 nM.
Procedure: as §2
The molecule B2 had an OD450 of 1.
B3 came in with an OD450 of 1.94.
With B4, the OD450 was determined as 0.994.
The same measure, in the same setting: as for B5, the figure is 0.715; as for B6, 2.54.

Another test has as its target T2, EGFR Fc. Kind of test: ELISA, EGFR Fc coated, VHH at 0.016 nM.
Procedure: as §2
Consider B2, for which the OD450 is 0.139.
For B3, the OD450 was found to be 0.871.
In turn, B4 showed an OD450 of 0.134.
Regarding B5, the OD450 worked out at 0.144.
On the same count and under the same terms, next, B6: 1.33.

The target in another test is T2, EGFR Fc. Description: blocking ELISA, EGFR-hFc + VHH at 0 nM on coated EGF-mFc.
Procedure: (§3) After incubation at 4° C. overnight, the plate was washed four times of PBST and blocked with 200 μl per well of 2% BSA for one hour at room temperature. […] The plate was washed twice with PBST, and the pre-mixed samples were added to the 96-well plate shaking at 60 rpm for one hour at room temperature. After four washes of PBST, the plate was incubated with detecting antibody anti-his-HRP (1:4000 dilution) 100 μl per well for one hour with shaking at 60 rpm. The plate was washed with four times of PBST and added 100 μl per well of substrate TMB followed by 50 μl of stop solution.
For B2, the OD450 turned out to be 1.04.
As for B3, the OD450 turned out to be 1.07.
In the case of B4, the OD450 amounted to 1.06.
Same read-out and setting: as for B5, the figure is 1.14; as for B6, 1.11.

For the next test, the target named is T2, EGFR Fc. Description: blocking ELISA, EGFR-hFc + VHH at 8 nM on coated EGF-mFc.
Procedure: as §3
Take B2: the OD450 was 0.757.
Regarding B3, the OD450 turned out to be 0.736.
Take B4: the OD450 was 0.562.
With B5, the OD450 was 0.633.
Consider B6, for which the OD450 stood at 0.649.

In another test the target is T2, EGFR Fc. Description: ELISA, EGFR Fc coated, VHH at 0.08 nM.
Procedure: as §2
Consider B2, for which the OD450 amounted to 0.496.
The molecule B3 had an OD450 of 1.43.
Still for that read-out and setting: as for B4, the figure is 0.373.
B5 showed an OD450 of 0.25.
The molecule B6 gave an OD450 of 2.37.

In the next test the target is T1, recombinant human OX40-Fc. Description: ELISA, OX40-Fc coated, VHH at 8 nM.
Procedure: as §1
On to B1, for which the OD450 was found to be 1.48.

Another test has as its target T2, EGFR Fc. Description: ELISA, EGFR Fc coated, VHH at 0.4 nM.
Procedure: as §2
Molecule B2 had an OD450 of 1.16.
Still for that read-out and setting: as for B3, the figure is 1.72; as for B4, 0.762; as for B5, 0.461.
On to B6, for which the OD450 was found to be 2.67.

The next test deals with T2, EGFR Fc. Description: blocking ELISA, EGFR-hFc + VHH at 40 nM on coated EGF-mFc.
Procedure: as §3
With B2, the OD450 stood at 0.606.
On the same count and under the same terms, next, B3: 0.801; B4: 0.482; B5: 0.414.
In the case of B6, the OD450 was determined as 0.433.

In a further test the target is T2, EGFR Fc. Kind of test: blocking ELISA, EGFR-hFc + VHH at 0.32 nM on coated EGF-mFc.
Procedure: as §3
Take B2: the OD450 was 1.07.
On to B3, for which the OD450 is 0.955.
Same read-out and setting: as for B4, the figure is 0.806; as for B5, 1.03.
The same measure, in the same setting: next, B6: 1.08.

Another test addresses T2, EGFR Fc. Kind of test: blocking ELISA, EGFR-hFc + VHH at 1000 nM on coated EGF-mFc.
Procedure: as §3
Regarding B2, the OD450 is 0.646.
B3: the OD450 was determined as 0.96.
As to B4, the OD450 was 0.336.
Same read-out and setting: as for B5, the figure is 0.151; as for B6, 0.15.

Another test deals with T1, recombinant human OX40-Fc. Description: ELISA, OX40-Fc coated, VHH at 0.0128 nM.
Procedure: as §1
In the case of B1, the OD450 was found to be 0.119.

Another test deals with T2, EGFR Fc. Kind of test: blocking ELISA, EGFR-hFc + VHH at 0.064 nM on coated EGF-mFc.
Procedure: as §3
For the molecule B2, the OD450 was found to be 0.956.
As to B3, the OD450 came out at 0.983.
As to B4, the OD450 is 0.979.
For the molecule B5, the OD450 amounted to 1.06.
In the case of B6, the OD450 stood at 1.14.

For the next test, the target named is T1, recombinant human OX40-Fc. Kind of test: ELISA, OX40-Fc coated, VHH at 1.6 nM.
Procedure: as §1
Take B1: the OD450 is 1.46.

A further test concerns the target T2, EGFR Fc. Description: blocking ELISA, EGFR-hFc + VHH at 200 nM on coated EGF-mFc.
Procedure: as §3
Regarding B2, the OD450 stood at 0.668.
On the same count and under the same terms, next, B3: 0.903.
In the case of B4, the OD450 amounted to 0.382.
Turning to B5, the OD450 was found to be 0.147.
Regarding B6, the OD450 was found to be 0.158.

A further test concerns the target T2, EGFR Fc. Kind of test: ELISA, EGFR Fc coated, VHH at 2 nM.
Procedure: as §2
The molecule B2 returned an OD450 of 1.83.
The same measure, in the same setting: as for B3, the figure is 1.88; as for B4, 0.843; as for B5, 0.626.
Molecule B6 registered an OD450 of 2.79.

The target in a further test is T3, EGFR (recombinant human, BLI antigen) (human, UniProt P00533 25-645).
T3 construct: also called rh-EGFR; human EGFR
Kind of test: BLI (Octet) as in Example 1; printed under the head Kdis(1/s), read as kon.
As to B2, the kon was 500000 M⁻¹ s⁻¹.
For the molecule B3, the kon worked out at 602000 M⁻¹ s⁻¹.
As for B4, the on-rate constant (kon) came to 457000 M⁻¹ s⁻¹.
B5: the kon worked out at 358000 M⁻¹ s⁻¹.
Turning to B6, the kon is 381000 M⁻¹ s⁻¹.

For the next test, the target named is T1, recombinant human OX40-Fc. Description: ELISA, OX40-Fc coated, VHH at 0.064 nM.
Procedure: as §1
B1: the OD450 amounted to 0.369.

Another test has as its target T2, EGFR Fc. Description: blocking ELISA, EGFR-hFc + VHH at 1.6 nM on coated EGF-mFc.
Procedure: as §3
For the molecule B2, the OD450 worked out at 0.928.
Still for that read-out and setting: next, B3: 0.864.
In the case of B4, the OD450 turned out to be 0.723.
For B5, the OD450 stood at 0.922.
As to B6, the OD450 worked out at 0.919.

In another test the target is T2, EGFR Fc. Kind of test: ELISA, EGFR Fc coated, VHH at 0.0032 nM.
Procedure: as §2
In turn, B2 yielded an OD450 of 0.082.
As to B3, the OD450 was 0.304.
For the molecule B4, the OD450 is 0.086.
The molecule B5 gave an OD450 of 0.121.
B6 came in with an OD450 of 0.648.

A further test addresses T3, EGFR (recombinant human, BLI antigen). Kind of test: BLI (Octet) as in Example 1; printed under the head Kon(1/Ms), read as koff.
With B2, the koff turned out to be 0.000399 s⁻¹.
In the case of B3, the koff was found to be 0.00028 s⁻¹.
Consider B4, for which the koff was 0.000275 s⁻¹.
Turning to B5, the koff worked out at 0.000406 s⁻¹.
For the molecule B6, the koff was 0.000715 s⁻¹.

The next test concerns the target T1, recombinant human OX40-Fc. Description: ELISA, OX40-Fc coated, VHH at 0.32 nM.
Procedure: as §1
With B1, the OD450 came to 0.993.

The next test concerns the target T1, recombinant human OX40-Fc. Kind of test: ELISA, OX40-Fc coated, VHH at 200 nM.
Procedure: as §1
Regarding B1, the OD450 came to 1.61.

The target of the next test is T3, EGFR (recombinant human, BLI antigen). Description: BLI (Octet) as in Example 1.
As to B2, the Kd turned out to be 0.798 nM.
For the molecule B3, the dissociation constant (Kd) amounted to 0.464 nM.
Still for that read-out and setting: next, B4: 0.602 nM; B5: 1.13 nM; B6: 1.87 nM.

Usually EC50 stands for the concentration needed to bring the measured effect to its halfway point. In general, Kd refers to the concentration at which binding is half-saturated. Usually koff stands for the rate constant with which the complex falls apart. What is called kon is the rate constant with which the complex forms.
